Experimental findings from paper PMC9814900 are described below.

This test concerns the target MDM2 25-109 (Homo sapiens), Q00987. In words: BLI competition. To be noted: modification not given.

B1: peptide 34 (peptide)
chain: AAFAAYWAALAAK
As usually defined, the Kd is the free concentration of one partner at which half of the binding sites on the other are occupied at equilibrium, for simple one-to-one binding. Read a high Kd as weaker binding. B1 returned a dissociation constant Kd of 4.7 nM.
